Laboratory results reported in publication PMC7319358.

Molecular target: Cy5UbPRG fluorescent activity-based probe (UniProt P0CG48)

In the case of recombinant DUB2 (enzyme), the percent of DUB2 reacted with the probe is reported as 85%.
